According to patent US20060239990A1 (published 2006):
Blank lines part the entries; values can stand above or below the binder they belong to.

Tests used:
GST-RB fusion protein [1] = molecular target: T1, GST-RB fusion protein (UniProt P06400 1-928); test: GST pull-down of S35-labeled in vitro translated protein with GST-RB on glutathione sepharose beads
T1 construct: not shown: glutathione S-transferase tag of the pGEX-6P vector (Amersham/Pharmacia)
T1 sequence (looked up): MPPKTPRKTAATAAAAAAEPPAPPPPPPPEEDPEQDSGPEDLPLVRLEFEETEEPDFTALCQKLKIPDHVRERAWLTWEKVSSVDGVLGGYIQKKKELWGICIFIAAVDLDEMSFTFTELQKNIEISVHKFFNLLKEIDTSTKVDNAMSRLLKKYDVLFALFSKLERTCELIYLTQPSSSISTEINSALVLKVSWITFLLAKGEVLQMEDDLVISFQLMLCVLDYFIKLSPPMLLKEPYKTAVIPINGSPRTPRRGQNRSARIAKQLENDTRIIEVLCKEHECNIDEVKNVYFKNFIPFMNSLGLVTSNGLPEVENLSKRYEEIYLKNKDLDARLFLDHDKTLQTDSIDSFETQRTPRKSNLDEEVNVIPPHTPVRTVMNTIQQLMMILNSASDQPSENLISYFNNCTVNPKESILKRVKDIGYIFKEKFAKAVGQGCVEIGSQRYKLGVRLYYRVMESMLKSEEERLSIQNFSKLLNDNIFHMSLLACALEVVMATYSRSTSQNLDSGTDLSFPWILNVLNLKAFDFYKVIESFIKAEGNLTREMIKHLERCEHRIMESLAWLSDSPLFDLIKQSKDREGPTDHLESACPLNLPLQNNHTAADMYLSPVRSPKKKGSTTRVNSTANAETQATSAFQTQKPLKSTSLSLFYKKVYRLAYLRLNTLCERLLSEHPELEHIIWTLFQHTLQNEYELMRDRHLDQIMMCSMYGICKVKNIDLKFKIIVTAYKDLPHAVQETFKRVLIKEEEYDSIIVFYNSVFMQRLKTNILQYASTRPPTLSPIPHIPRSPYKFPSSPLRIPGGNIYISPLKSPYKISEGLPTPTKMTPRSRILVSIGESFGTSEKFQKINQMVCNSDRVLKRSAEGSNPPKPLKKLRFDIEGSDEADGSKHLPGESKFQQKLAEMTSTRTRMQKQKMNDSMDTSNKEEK
Description: GST-RB and GST were bound to glutathione sepharose beads and incubated with S³⁵-labeled in vitro translated PRMT1, PRMT2, PRMT3, and PRMT4. Co-precipitated labeled PRMTs were analyzed by SDS-PAGE. […] HA-tagged PRMT2 (+) or control vectors (−) were transfected in 293 cells. Cell lysates were immunoprecipitated with rabbit RB antibodies or IgG and followed by Western blot analysis using mouse HA and RB antibodies (upper panel). A Western blot using mouse HA antibodies detects HA-tagged PRMT2 (lower panel).
The crude cell lysate of the GST-fusion proteins was prepared and purified according to the manufacture's protocol (Amersham/Pharmacia). [³⁵S]-methionine-labeled protein was produced by in vitro transcription/translation using the TNT T7-coupled reticulocyte lysate system (Promega). [³⁵S]-methionine-labeled protein and GST-fusion protein bound to glutathione sepharose 4B beads were incubated in 500 μl of HNE buffer (50 mM Hepes, pH 7.8, 150 mM NaCl, 1 mM EDTA, 1 mM DTT, 1% NP40, and 1× protease inhibitor mix (Complete: Roche)) at 4° C. for 1 hour. Beads were washed four times with HNE buffer, and then analyzed on an SDS-PAGE gradient gel (4-15%). […]

GST-RB fusion protein [2] = molecular target: T1, GST-RB fusion protein; test: GST pull-down of S35-labeled in vitro translated protein with GST-RB

binding result (GST-RB fusion protein [2]): no binding
B3: PRMT2(1-95) (enzyme)
chain: MATSGDCPRSESQGEEPAECSEAGLLQEGVQPEEFVAIADYAATDETQLSFLRGEKILILRQTTADWWWGERAGCCGYIPANHVGKHVDEYDPED
modifications: [35S]-methionine label

binding result (GST-RB fusion protein [2]): no binding
B4: PRMT2(1-95&219-433) (enzyme)
chain: MATSGDCPRSESQGEEPAECSEAGLLQEGVQPEEFVAIADYAATDETQLSFLRGEKILILRQTTADWWWGERAGCCGYIPANHVGKHVDEYDPEDFEFMIESILYARDAWLKEDGVIWPTMAALHLVPCSADKDYRSKVLFWDNAYEFNLSALKSLAVKEFFSKPKYNHILKPEDCLSEPCTILQLDMRTVQISDLETLRGELRFDIRKAGTLHGFTAWFSVHFQSLQEGQPPQVLSTGPFHPTTHWKQTLFMMDDPVPVHTGDVVTGSVVLQRNPVWRRHMSVALSWAVTSRQDPTSQKVGEKVFPIWR
modifications: [35S]-methionine label in the binding assay
notes: the same deletion was expressed from pVR1012 in the U2OS reporter assay; also called Int-del

The next lines start with the binder.

B1: S35-labeled in vitro translated PRMT4 (CARM1) (human) (enzyme, UniProt Q86X55 2-608, looked up)
chain: AAAAAAVGPGAGGAGSAVPGGAGPCATVSVFPGARLLTIGDANGEIQRHAEQQALRLEVRAGPDSAGIALYSHEDVCVFKCSVSRETECSRVGKQSFIITLGCNSVLIQFATPNDFCSFYNILKTCRGHTLERSVFSERTEESSAVQYFQFYGYLSQQQNMMQDYVRTGTYQRAILQNHTDFKDKIVLDVGCGSGILSFFAAQAGARKIYAVEASTMAQHAEVLVKSNNLTDRIVVIPGKVEEVSLPEQVDIIISEPMGYMLFNERMLESYLHAKKYLKPSGNMFPTIGDVHLAPFTDEQLYMEQFTKANFWYQPSFHGVDLSALRGAAVDEYFRQPVVDTFDIRILMAKSVKYTVNFLEAKEGDLHRIEIPFKFHMLHSGLVHGLAFWFDVAFIGSIMTVWLSTAPTEPLTHWYQVRCLFQSPLFAKAGDTLSGTCLLIANKRQSYDISIVAQVDQTGSKSSNLLDLKNPFFRYTGTTPSPPPGSHYTSPSENMWNTGSTYNLSSGMAVAGMPTAYDLSSVIASGSSVGHNNLIPLANTGIVNHTHSRMGSIMSTGIVQGSSGAQGSGGGSTSAHYAVNSQFTMGGPAISMASPMSIPTNTMHYGS
modifications: [35S]-methionine label
binding result (GST-RB fusion protein [1]): no binding

B2: S35-labeled in vitro translated PRMT3 (human) (enzyme, UniProt O60678 2-531, looked up)
chain: CSLASGATGGRGAVENEEDLPELSDSGDEAAWEDEDDADLPHGKQQTPCLFCNRLFTSAEETFSHCKSEHQFNIDSMVHKHGLEFYGYIKLINFIRLKNPTVEYMNSIYNPVPWEKEEYLKPVLEDDLLLQFDVEDLYEPVSVPFSYPNGLSENTSVVEKLKHMEARALSAEAALARAREDLQKMKQFAQDFVMHTDVRTCSSSTSVIADLQEDEDGVYFSSYGHYGIHEEMLKDKIRTESYRDFIYQNPHIFKDKVVLDVGCGTGILSMFAAKAGAKKVLGVDQSEILYQAMDIIRLNKLEDTITLIKGKIEEVHLPVEKVDVIISEWMGYFLLFESMLDSVLYAKNKYLAKGGSVYPDICTISLVAVSDVNKHADRIAFWDDVYGFKMSCMKKAVIPEAVVEVLDPKTLISEPCGIKHIDCHTTSISDLEFSSDFTLKITRTSMCTAIAGYFDIYFEKNCHNRVVFSTGPQSTKTHWKQTVFLLEKPFSVKAGEALKGKVTVHKNKKDPRSLTVTLTLNNSTQTYGLQ
modifications: [35S]-methionine label
binding result (GST-RB fusion protein [1]): no binding
